According to patent US20220162312A1 (WUXI BIOLOGICS IRELAND, published 2022):
Substitutions are numbered along the chain they refer to. Names may count otherwise. Values belong to the binder of their own block, whether it stands above or below them.

Experiments:
[1] = target: T1, CD20 on Raji cells (CD20+/CD3- cells) (human, UniProt P11836 1-297); assay: cell-based or functional assay
T1 sequence (looked up): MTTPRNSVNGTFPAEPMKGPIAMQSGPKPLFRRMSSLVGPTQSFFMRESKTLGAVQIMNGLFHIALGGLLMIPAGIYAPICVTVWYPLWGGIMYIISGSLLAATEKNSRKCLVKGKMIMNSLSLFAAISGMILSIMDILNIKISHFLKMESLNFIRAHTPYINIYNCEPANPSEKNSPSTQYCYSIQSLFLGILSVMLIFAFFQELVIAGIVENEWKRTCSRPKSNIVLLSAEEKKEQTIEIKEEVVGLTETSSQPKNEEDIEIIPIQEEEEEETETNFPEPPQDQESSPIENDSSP

[2] = target: T1, CD20 on Raji cells (CD20+/CD3- cells); assay: cell-based or functional assay; remark: listed apart in the source
[3] = target: T1, CD20 on Raji cells (CD20+/CD3- cells); assay: cell-based or functional assay; remark: listed apart in the source
[4] = target: T1, CD20 on Raji cells (CD20+/CD3- cells); assay: cell-based or functional assay; remark: listed apart in the source
[5] = target: T2, CD3 on Jurkat cells (CD3+/CD20- cells) (human, UniProt P07766 23-207; P04234 22-171; P09693 23-182); assay: flow cytometry on Jurkat cells (CD3+/CD20-)
T2 construct: whole, on cells; also called human CD3; Jurkat 2B8
T2 sequence (P07766 23-207, chain 1 of 3): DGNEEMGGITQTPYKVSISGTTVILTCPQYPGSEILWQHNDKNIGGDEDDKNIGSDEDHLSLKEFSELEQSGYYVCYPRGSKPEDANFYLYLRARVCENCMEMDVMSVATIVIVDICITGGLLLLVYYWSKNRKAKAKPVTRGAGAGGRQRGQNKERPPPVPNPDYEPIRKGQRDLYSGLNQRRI
T2 sequence (P04234 22-171, chain 2 of 3): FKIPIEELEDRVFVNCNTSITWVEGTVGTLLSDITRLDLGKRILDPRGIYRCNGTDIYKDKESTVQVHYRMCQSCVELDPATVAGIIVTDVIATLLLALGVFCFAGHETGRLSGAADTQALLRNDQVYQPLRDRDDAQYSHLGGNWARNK
T2 sequence (P09693 23-182, chain 3 of 3): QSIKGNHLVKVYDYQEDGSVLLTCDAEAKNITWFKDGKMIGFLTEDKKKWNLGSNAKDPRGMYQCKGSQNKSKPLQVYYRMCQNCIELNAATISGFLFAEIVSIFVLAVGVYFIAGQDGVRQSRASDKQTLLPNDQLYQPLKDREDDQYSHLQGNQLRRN
Method: (§1) The binding of W3278 BsAb to target cells was determined by flow cytometry. Briefly, 1×10⁵/well of target cells (CD3+/CD20− cells or CD20+/CD3− cells) were incubated with serial dilutions of W3278 BsAb or human IgG4 isotype control antibody at 4° C. for 60 minutes. After incubation, cells were washed twice with cold 1% BSA/1×PBS and Alexa Fluor647 conjugated Goat anti-human IgG Fc (Jackson-109-605-098) was then added and incubated for 30 minutes at 4° C. After washing twice, the geometric mean fluorescence (MFI) of stained cells was measured using a FACS Canto II cytometer (BD Biosciences). Wells containing no antibody or fluorescent secondary antibody only were used to establish background fluorescence. The EC₅₀ values of cell binding were determined using GraphPad Prism 5 software (GraphPad Software, La Jolla, Calif.) with values calculated using a four-parameter non-linear regression analysis.

[6] = target: T1, CD20 on Raji cells (CD20+/CD3- cells); assay: flow cytometry on Raji cells (CD20+/CD3-)
Method: as §1

T cell CD69 expression EC50 (Table 5B), CD4+/Raji [1]: 0.2 pM | T cell CD69 expression EC50 (Table 5B), CD8+/Raji [1]: 0.4 pM | CD4+ T cell IL-2 release EC50, with Raji cells [2]: 11.4 pM | CD4+ T cell TNF-a release EC50, with Raji cells [2]: 13.5 pM | T cell CD69 expression EC50 (Table 5A as titled), CD4+/Raji [3]: 0.6 pM | T cell CD69 expression EC50 (Table 5A as titled), CD8+/Raji [3]: 0.8 pM
B1: W3278-U2T3.F18R-1.uIgG4.SP (bispecific antibody)
heavy 1: QVQLQQPGAELVKPGASVKMSCKASGYTFTSYNMHWVKQTPGRGLEWIGAIYPGNGDTSYNQKFKGKATLTADKSSSTAYMQLSSLTSEDSAVYYCARSTYYGGDWYFNVWGAGTTVTVSAASTKGPSVFPLAPCSRSTSESTAALGCLVKDYFPEPVTVSWNSGALTSGVHTFPAVLQSSGLYSLSSVVTVPSSSLGTKTYTCNVDHKPSNTKVDKRVGGGGSGGGGSQVQLVQSGAEVKKPGSSVKVSCKASGFAFTDYYIHWVRQAPGQGLEWMGWISPGNVNTKYNENFKGRVTITADKSTSTAYMELSSLRSEDTAVYYCARDGYSLYYFDYWGQGTLVTVLEDLKNVFPPEVAVFEPSEAEISHTQKATLVCLATGFYPDHVELSWWVNGKEVHSGVCTDPQPLKEQPALQDSRYALSSRLRVSATFWQNPRNHFRCQVQFYGLSENDEWTQDRAKPVTQIVSAEAWGRYGPPCPPCPAPEFLGGPSVFLFPPKPKDTLMISRTPEVTCVVVDVSQEDPEVQFNWYVDGVEVHNAKTKPREEQFNSTYRVVSVLTVLHQDWLNGKEYKCKVSNKGLPSSIEKTISKAKGQPREPQVYTLPPCQEEMTKNQVSLWCLVKGFYPSDIAVEWESNGQPENNYKTTPPVLDSDGSFFLYSRLTVDKSRWQEGNVFSCSVMHEALHNHYTQKSLSLSLG
heavy 2: QVQLQQPGAELVKPGASVKMSCKASGYTFTSYNMHWVKQTPGRGLEWIGAIYPGNGDTSYNQKFKGKATLTADKSSSTAYMQLSSLTSEDSAVYYCARSTYYGGDWYFNVWGAGTTVTVSAASTKGPSVFPLAPCSRSTSESTAALGCLVKDYFPEPVTVSWNSGALTSGVHTFPAVLQSSGLYSLSSVVTVPSSSLGTKTYTCNVDHKPSNTKVDKRVESKYGPPCPPCPAPEFLGGPSVFLFPPKPKDTLMISRTPEVTCVVVDVSQEDPEVQFNWYVDGVEVHNAKTKPREEQFNSTYRVVSVLTVLHQDWLNGKEYKCKVSNKGLPSSIEKTISKAKGQPREPQVCTLPPSQEEMTKNQVSLSCAVKGFYPSDIAVEWESNGQPENNYKTTPPVLDSDGSFFLVSRLTVDKSRWQEGNVFSCSVMHEALHNHYTQKSLSLSLG
light 1: QIVLSQSPAILSASPGEKVTMTCRASSSVSYIHWFQQKPGSSPKPWIYATSNLASGVPVRFSGSGSGTSYSLTISRVEAEDAATYYCQQWTSNPPTFGGGTKLEIKRTVAAPSVFIFPPSDEQLKSGTASVVCLLNNFYPREAKVQWKVDNALQSGNSQESVTEQDSKDSTYSLSSTLTLSKADYEKHKVYACEVTHQGLSSPVTKSFNRGEC
light 2: DIVMTQSPDSLAVSLGERATINCKSSQSLLNSRTRKNYLAWYQQKPGQPPKLLIYWASTRQSGVPDRFSGSGSGTDFTLTISSLQAEDVAVYYCTQSHTLRTFGGGTKVEIKPDIQNPDPAVYQLRDSKSSDKSVCLFTDFDSQTQVSQSKDSDVYITDKCVLDMRSMDFKSNSAVAWSQKSDFACANAFQNSIIPEDTFFPSPESS
cytotoxicity EC50, NAMALWA cells, CD8+ T cells as effectors [4]: 46.8 pM | cytotoxicity EC50, Raji cells, CD8+ T cells as effectors [4]: 0.52 pM | cytotoxicity EC50, Ramos cells, CD8+ T cells as effectors [4]: 1.25 pM

EC50 [5]: 26600 pM | TOP MFI [5]: 536 MFI | EC50 [6]: 1300 pM | TOP MFI [6]: 55400 MFI
B2: W3278-U3T2.F18R-1.uIgG4.SP (bispecific antibody)
heavy 1: EVQLVESGGGLVQPGRSLRLSCAASGFTFNDYAMHWVRQAPGKGLEWVSTISWNSGSIGYADSVKGRFTISRDNAKKSLYLQMNSLRAEDTALYYCAKDIQYGNYYYGMDVWGQGTTVTVSSASTKGPSVFPLAPCSRSTSESTAALGCLVKDYFPEPVTVSWNSGALTSGVHTFPAVLQSSGLYSLSSVVTVPSSSLGTKTYTCNVDHKPSNTKVDKRVGGGGSGGGGSQVQLVQSGAEVKKPGSSVKVSCKASGYSFTTYYIHWVRQAPGQGLEWMGWIFPGNDNIKYSEKFKGRVTITADKSTSTAYMELSSLRSEDTAVYYCAIDSVSIYYFDYWGQGTLVTVLEDLKNVFPPEVAVFEPSEAEISHTQKATLVCLATGFYPDHVELSWWVNGKEVHSGVCTDPQPLKEQPALQDSRYALSSRLRVSATFWQNPRNHFRCQVQFYGLSENDEWTQDRAKPVTQIVSAEAWGRYGPPCPPCPAPEFLGGPSVFLFPPKPKDTLMISRTPEVTCVVVDVSQEDPEVQFNWYVDGVEVHNAKTKPREEQFNSTYRVVSVLTVLHQDWLNGKEYKCKVSNKGLPSSIEKTISKAKGQPREPQVYTLPPCQEEMTKNQVSLWCLVKGFYPSDIAVEWESNGQPENNYKTTPPVLDSDGSFFLYSRLTVDKSRWQEGNVFSCSVMHEALHNHYTQKSLSLSLG
heavy 2: EVQLVESGGGLVQPGRSLRLSCAASGFTFNDYAMHWVRQAPGKGLEWVSTISWNSGSIGYADSVKGRFTISRDNAKKSLYLQMNSLRAEDTALYYCAKDIQYGNYYYGMDVWGQGTTVTVSSASTKGPSVFPLAPCSRSTSESTAALGCLVKDYFPEPVTVSWNSGALTSGVHTFPAVLQSSGLYSLSSVVTVPSSSLGTKTYTCNVDHKPSNTKVDKRVESKYGPPCPPCPAPEFLGGPSVFLFPPKPKDTLMISRTPEVTCVVVDVSQEDPEVQFNWYVDGVEVHNAKTKPREEQFNSTYRVVSVLTVLHQDWLNGKEYKCKVSNKGLPSSIEKTISKAKGQPREPQVCTLPPSQEEMTKNQVSLSCAVKGFYPSDIAVEWESNGQPENNYKTTPPVLDSDGSFFLVSRLTVDKSRWQEGNVFSCSVMHEALHNHYTQKSLSLSLG
light 1: not shown
light 2: not shown
light 3: B1 light 2 with Q61K, H98F, T99I
notes: Human IgG4 (S228P) knobs-into-holes, same F18R-1 format as m3, so L1 probably stands twice; also called W3278-U3T2.F18R-1.ulgG4.SP
